Reference: PMC7933334, “The methyltransferase SETD2 couples transcription and splicing by engaging mRNA processing factors through its SHI domain” (Nature Communications, 2021)

Target: T1, GST-His-hnRNP L RRM2 (162–321) (human, UniProt P14866 162-321)
T1 construct: bait of the GST pull-down; source: E. coli Rosetta 2 (DE3) pLysS, purified (glutathione magnetic beads)
T1 sequence (looked up): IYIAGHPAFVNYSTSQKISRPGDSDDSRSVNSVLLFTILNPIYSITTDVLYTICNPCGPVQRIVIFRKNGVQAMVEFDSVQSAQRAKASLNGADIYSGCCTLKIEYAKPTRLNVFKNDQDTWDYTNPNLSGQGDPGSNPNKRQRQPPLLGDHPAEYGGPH
Test: pull-down; GST pull-down with recombinant proteins purified from bacteria; GST-His-hnRNP L segments as baits, FLAG-SETD2 fragments as preys; RNase included in the binding assay; western blot with anti-His and anti-FLAG
Details: both partners purified

binding result: binds
B1: FLAG-SETD2 SHI (2114–2263) (domain or fragment, human, UniProt Q9BYW2 2114-2263, looked up)
chain: NKLSTEERRKLFEQEVAQREAQKQQQQMQNLGMTSPLPYDSLGYNAPHHPFAGYPPGYPMQAYVDPSNPNAGKVLLPTPSMDPVCSPAPYDHAQPLVGHSTEPLSAPPPVPVVPHVAAPVEVSSSQYVAQSDGVVHQDSSVAVLPVPAPG
notes: The methods say that proteins were eluted with either glutathione or AcTEV protease; source: E. coli Rosetta 2 (DE3) pLysS, purified (glutathione magnetic beads)
